From patent US20260209365A1, “ANTI-COMMON GAMMA CHAIN PROTEINS AND COMPOSITIONS OF MATTER” (SINOMAB BIOSCIENCE LIMITED, priority 2023, published 2026)

How the values were obtained:
[1] = tested on: CD127 internalization and degradation; test: IL-7 induced CD127 internalization and degradation in HPB-ALL, flow cytometry; format: cell-based, human; conditions: humanized antibodies, 33 nM, vs ritlecitinib
Text: Specific methods for IL-7 function were developed in HPB-ALL [Henriques et al., Blood., 2010; 115 (16): 3269-77]. IL-7 could trigger the internalization of its own receptor, CD127 (or IL-7Rai), into the cell compartment for degradation. As the CD127 degradation depends on the JAK3 activated status after IL-7 stimulation, blockade of γc binding to CD127 and downstream signaling pathway should stop CD127 internalization and degradation in HPB-ALL.
After antibody or inhibitor pretreatment, HPB-ALL was challenged with 50 ng/ml IL-7 for 3 hours. Surface CD127 expression was performed in live cells while total CD127 expression was investigated in PFA fixed and permeabilized cells. Cells were stained with APC-conjugated CD127 antibody for flow cytometry analysis.

[2] = tested on: BCL-2 expression; test: IL-7 induced BCL-2 expression in HPB-ALL, flow cytometry; format: cell-based, human; conditions: humanized antibodies, 33 nM, vs ritlecitinib
Protocol: Several assays, such as were proposed to study cell survival of HPB-ALL from literature [Ribeiro et al., Blood Adv., 2018; 2 (17): 2199-2213] was measured in terms of BCL2 (anti-apoptotic marker) expressing cells by flow cytometry. In brief, HPB-ALL was pre-treated with antibodies or inhibitors for an hour before stimulated with 50 ng/ml IL-7 for 3 days. Cells were harvested and stained with FITC-conjugated BCL-2 antibody (Biolegend) for flow cytometry analysis.

B1: hSM-05A: full-length humanized anti-γc antibody derived from SM-05A by framework patching (antibody, V domains shown)
VH: QVQLVQSGAEVLKPGASVKVSCKASGYTFTEYTMHWVKQARGQRLEWIGGIDPYNGGATYNQRFKGKATLTTDTSTSTAYMELRNLRSDDTAVYYCARRRLYYGNALDYWGQGTLVTVSS
VL: DIVMTQSPLSLPVTPGEQASISCRSSQSLVHSNGNTYLHWYLQKPGQSPQLLIYKVSSRFSGVPDRFSGSGSGTDFTLKISRVEAEDVGVYFCSQTTHVPFTFGSGTKLEIKR
[1]
  suppression of IL-7 induced CD127 degradation: better suppression to IL-7 induced BCL-2 upregulation and CD127 degradation than ritlecitinib
[2]
  suppression of IL-7 induced BCL-2 upregulation: better suppression to IL-7 induced BCL-2 upregulation and CD127 degradation than ritlecitinib
